According to doi:10.1101/2025.11.12.687969 (bioRxiv, 2025):

Biological target: EGFP–TDP-43 (human, UniProt Q13148 1-414)
Experiment: co-IP

reduction of the association index relative to WT (log2): 0.77 log2 units
B1: Myc–TDP-43 ΔNLS (natural protein, human, UniProt Q13148-1 1-414, looked up)
chain: MSEYIRVTEDENDEPIEIPSEDDGTVLLSTVTAQFPGACGLRYRNPVSQCMRGVRLVEGILHAPDAGWGNLVYVVNYPKDNAAAMDETDASSAVKVKRAVQKTSDLIVLGLPWKTTEQDLKEYFSTFGEVLMVQVKKDLKTGHSKGFGFVRFTEYETQVKVMSQRHMIDGRWCDCKLPNSKQSQDEPLRSRKVFVGRCTEDMTEDELREFFSQYGDVMDVFIPKPFRAFAFVTFADDQIAQSLCGEDLIIKGISVHISNAEPKHNSNRQLERSGRFGGNPGGFGNQGGFGNSRGGGAGLGNNQGSNMGGGMNFGAFSINPAMMAAAQAALQSSWGMMGMLASQQNQSGPSGNNQNQGNMQREPNQAFGSGNNSYSGSNSGAAIGWGSASNAGSGSGFNGGFGSSMDSKSSGWGM
